Assay results taken from article PMC2679210, “Dpr Acts as a Molecular Switch, Inhibiting Wnt Signaling when Unphosphorylated, but Promoting Wnt Signaling when Phosphorylated by Casein Kinase Iδ/ε” (PLoS ONE, 2009).

Target: T1, Myc-tagged XDpr1a phosphorylated by CKIδ (Xenopus, UniProt Q8QG92 1-824, phosphorylated by CKIδ; sites not told)
T1 construct: Xenopus Dapper1a (XDpr1a), as m1; also called phosphorylated XDpr1a; XDpr1a in the presence of CKIδ
T1 sequence (looked up): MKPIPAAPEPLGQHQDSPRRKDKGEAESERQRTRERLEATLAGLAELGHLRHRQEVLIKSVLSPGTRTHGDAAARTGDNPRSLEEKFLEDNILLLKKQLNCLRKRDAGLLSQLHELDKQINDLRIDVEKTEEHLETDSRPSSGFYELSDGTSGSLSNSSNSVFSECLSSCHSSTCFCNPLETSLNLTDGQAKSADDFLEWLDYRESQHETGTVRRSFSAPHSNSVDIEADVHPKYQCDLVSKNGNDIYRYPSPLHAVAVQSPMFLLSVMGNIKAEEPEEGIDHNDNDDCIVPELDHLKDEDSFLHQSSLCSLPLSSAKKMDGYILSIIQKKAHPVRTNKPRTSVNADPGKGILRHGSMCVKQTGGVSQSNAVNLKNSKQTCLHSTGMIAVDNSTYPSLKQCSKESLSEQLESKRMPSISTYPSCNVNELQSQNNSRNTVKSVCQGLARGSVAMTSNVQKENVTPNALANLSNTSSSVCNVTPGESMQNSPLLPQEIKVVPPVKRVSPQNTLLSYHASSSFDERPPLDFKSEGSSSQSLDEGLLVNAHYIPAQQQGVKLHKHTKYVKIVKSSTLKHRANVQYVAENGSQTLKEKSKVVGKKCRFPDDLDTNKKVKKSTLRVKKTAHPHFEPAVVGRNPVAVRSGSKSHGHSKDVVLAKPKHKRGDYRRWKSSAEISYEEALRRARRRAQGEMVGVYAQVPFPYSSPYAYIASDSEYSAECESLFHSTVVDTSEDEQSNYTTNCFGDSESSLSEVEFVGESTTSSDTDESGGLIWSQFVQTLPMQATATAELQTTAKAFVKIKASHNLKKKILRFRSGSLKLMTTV
Assay: co-IP; in vitro coimmunoprecipitation: [35S]methionine-labeled Myc:XDpr1a immunoprecipitated with anti-Myc antibodies and protein A agarose, 2 hours at room temperature, from a reaction containing HA-tagged XDsh in the absence or presence of CKIδ; washed three times with 50 mM Tris-HCl pH 7.4, 137 mM NaCl; SDS-PAGE, autoradiography, PhosphorImager quantitation (n = 4 trials)
Settings: partners not purified

B1: HA-tagged XDsh phosphorylated by CKIδ (natural protein, Xenopus, UniProt P51142 1-736, looked up)
chain: MAETKVIYHLDEEETPYLVKVPVPATDIRLRDFKAALGRGHAKYFFKAMDQDFGVVKEEISDDNAKLPCFNDRVVSWLASSEGSQPDSAPPAPATEVRPEPPPPVPPPIPPPPAERTSGIGDSRPPSFHPNVSGSTEQLDQDNESVISMRRDRVRRRESSEQAGVGRGVNGRTERHLSGYESSSTLLTSEIETSICDSEEDDTMSRFSSSTEQSSASRLLKRHRRRRKQRPPRLERTSSFSSVTDSTMSLNIITVTLNMEKYNFLGISIVGQSNERGDGGIYIGSIMKGGAVAADGRIEPGDMLLQVNDINFENMSNDDAVRVLRDIVHKPGPIVLTVAKCWDPSPQGYFTLPRNEPIHPIDPAAWVSHSAALSGSFPVYPGSASMSSMTSSTSVTETELSHALPPVSLFSLSVHTDLASVVKVMASPESGLEVRDRMWLKITIPNAFLGSDVVDWLYHHVEGFQDRREARKFASNLLKAGFIRHTVNKITFSEQCYYIFGDLTGCENYMTNLSLNDNDGSSGASDQDTLAPLPLPGASPWPLLPTFSYQYQAPHPYSTQPPAYHELSSYSYGMGSAGSQHSEGSRSSGSNRSDGGRGMQKDDRSGVAGVGGGDSKSGSGSESEYSTRSSIRRVGGGEAGPPSERSTSSRLPPHHPPSVHSYAAPGVPLSYNPMMLMMMPPPPLPPPGVCPPNSSVPPGAPPLVRDLASVPPELTATRQSFHMAMGNPSEFFVDVM
modifications: phosphorylated by CKIδ; sites not told
notes: Xenopus disheveled (XDsh), as m2; also called phosphorylated XDsh; XDsh in the presence of CKIδ
  coimmunoprecipitation relative to the control without CKIδ: ~0.5 relative to no CKIδ (1.0)
